Source: article PMC7824710

Columns and labels:
[1] = target: recombinant kinase domain of MKK7 (MKK7-KD), residues 101–405 (UniProt O14733); assay: other fluorescence titration; FITC fluorescence quenching; FITC-labelled peptide at 10 nM titrated with soluble MKK7-KD 0-1000 nM; 96-well black plates, 200 µL, excitation 488 nm, emission at 517 nm; one-site total fit
[2] = target: recombinant kinase domain of MKK7 (MKK7-KD), residues 101–405 (UniProt O14733); assay: other fluorescence titration; tryptophan fluorescence quenching at 334 nm; MKK7-KD at 1.25 µM in phosphate buffer pH 7.5, peptide 10 nM to 140 µM; fit log[inhibitor] vs. response, variable slope

Chain of UniProt O14733 (O14733 101-405): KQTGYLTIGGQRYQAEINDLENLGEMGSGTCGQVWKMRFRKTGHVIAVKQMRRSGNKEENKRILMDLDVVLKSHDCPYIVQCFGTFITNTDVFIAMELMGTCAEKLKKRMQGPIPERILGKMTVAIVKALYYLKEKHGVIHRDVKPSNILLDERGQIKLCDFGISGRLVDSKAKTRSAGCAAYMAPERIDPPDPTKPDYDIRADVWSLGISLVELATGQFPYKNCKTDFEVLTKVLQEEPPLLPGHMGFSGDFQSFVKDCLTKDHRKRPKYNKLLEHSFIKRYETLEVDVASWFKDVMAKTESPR

Kd [1] | Kd [2] | Δ Fluorescence at 334 nm (at concentrations above 10 µM) [2] | Substance
123 nM | – | – | FITC-βAla2-DTP3 (peptide)
– | 240 nM | – | DTP3 (Ac-D-Tyr-D-Arg-D-Phe-NH2) (peptide)
– | 41000 nM | 4 units | scramble (SCRB) peptide (Ac-D-Arg-D-Phe-D-Tyr-NH2)
